Bridge positions count the residues as written; N and C are the ends. Ends that are not written are not given here.

The target of the assay is T1, Abeta 1-42 peptide.
T1 construct: Used at 100 micromolar in PBS pH 7.4 at 37 C, where it aggregates into oligomers and fibrils, so it was not a defined monomer in the assays; also called Abeta42; Abeta 42
As to the kind of experiment: Glu-OC (25 ng-0.1 ng) incubated with 100 micromolar Abeta42; A11 reactivity and AFM.

T1 sequence (peptide, as listed by the source): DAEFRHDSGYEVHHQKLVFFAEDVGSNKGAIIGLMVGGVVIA

B1: undercarboxylated osteocalcin (peptide)
peptide: YLYQWLGAPVPYPDPLEPRREVCELNPDCDELADHIGFQEAYRRFYGPV
modifications: disulfide 23-29
notes: also called Glu-OC; uncarboxylated osteocalcin
Consider B1, for which the binding result is given as “binds”.

Source of the values: patent publication US20210230244A1 (NATIONAL INSTITUTE OF IMMUNOLOGY, published 2021).
